Key:
[1] = tested on: oligomeric versus monomeric Aβ1-42 (Aβ1-42-biotin bait); assay: Affinity capture interactome Experiment III (oAβ1-42-biotin vs mAβ1-42-biotin); conditions: for Experiment III oAβ1-42-B/mAβ1-42-B Ratio: oligomeric versus monomeric bait, human frontal lobe digitonin extract, TMT, pH 8.0, 4°C overnight
[2] = tested on: oligomeric Aβ1-42 (oAβ1-42-biotin bait); assay: Affinity capture interactome Experiment II (C-terminally tethered oAβ1-42-biotin vs biotin); conditions: for Experiment II oAβ1-42-B/B Ratio: enrichment relative to biotin-only negative control, human frontal lobe digitonin extract, TMT, pH 8.0, 4°C overnight

B1: Acetyl-CoA acetyltransferase, mitochondrial: human brain protein (protein, UniProt P24752 34-427, looked up)
Acetyl-CoA acetyltransferase, …: VSKPTLKEVVIVSATRTPIGSFLGSLSLLPATKLGSIAIQGAIEKAGIPKEEVKEAYMGNVLQGGEGQAPTRQAVLGAGLPISTPCTTINKVCASGMKAIMMASQSLMCGHQDVMVAGGMESMSNVPYVMNRGSTPYGGVKLEDLIVKDGLTDVYNKIHMGSCAENTAKKLNIARNEQDAYAINSYTRSKAAWEAGKFGNEVIPVTVTVKGQPDVVVKEDEEYKRVDFSKVPKLKTVFQKENGTVTAANASTLNDGAAALVLMTADAAKRLNVTPLARIVAFADAAVEPIDFPIAPVYAASMVLKDVGLKKEDIAMWEVNEAFSLVVLANIKMLEIDPQKVNINGGAVSLGHPIGMSGARIVGHLTHALKQGEYGLASICNGGGGASAMLIQKL
In the case of B1, the “Experiment III oAβ1-42-B/mAβ1-42-B Ratio” value [1] is reported as 2.45 and the “Experiment II oAβ1-42-B/B Ratio” value [2] is reported as 2.64.

B2: Peroxiredoxin-5, mitochondrial: human brain protein (protein, UniProt P30044 53-214, looked up)
Peroxiredoxin-5, mitochondrial: MAPIKVGDAIPAVEVFEGEPGNKVNLAELFKGKKGVLFGVPGAFTPGCSKTHLPGFVEQAEALKAKGVQVVACLSVNDAFVTGEWGRAHKAEGKVRLLADPTGAFGKETDLLLDDSLVSIFGNRRLKRFSMVVQDGIVKALNVEPDGTGLTCSLAPNIISQL
For B2, the “Experiment III oAβ1-42-B/mAβ1-42-B Ratio” value [1] was 5.90 and the “Experiment II oAβ1-42-B/B Ratio” value [2] was 2.15.

B3: Cofilin-2: human brain protein (protein, UniProt Q9Y281 2-166, looked up)
Cofilin-2: ASGVTVNDEVIKVFNDMKVRKSSTQEEIKKRKKAVLFCLSDDKRQIIVEEAKQILVGDIGDTVEDPYTSFVKLLPLNDCRYALYDATYETKESKKEDLVFIFWAPESAPLKSKMIYASSKDAIKKKFTGIKHEWQVNGLDDIKDRSTLGEKLGGNVVVSLEGKPL
B3 was tested, and the “Experiment III oAβ1-42-B/mAβ1-42-B Ratio” value [1] was 6.93 and the “Experiment II oAβ1-42-B/B Ratio” value [2] was 1.81.

B4: 14-3-3 protein epsilon: human brain protein (protein, UniProt P62258 1-255, looked up)
14-3-3 protein epsilon: MDDREDLVYQAKLAEQAERYDEMVESMKKVAGMDVELTVEERNLLSVAYKNVIGARRASWRIISSIEQKEENKGGEDKLKMIREYRQMVETELKLICCDILDVLDKHLIPAANTGESKVFYYKMKGDYHRYLAEFATGNDRKEAAENSLVAYKAASDIAMTELPPTHPIRLGLALNFSVFYYEILNSPDRACRLAKAAFDDAIAELDTLSEESYKDSTLIMQLLRDNLTLWTSDMQGDGEEQNKEALQDVEDENQ
With B4 the 128/131 ([1]; Experiment III, oAbeta 1-42 (TMT 128) versus mAbeta 1-42 (TMT 131), replicate channel 128) was 1.113, the 130/131 ([1]; Experiment III, oAbeta 1-42 (TMT 130) versus mAbeta 1-42 (TMT 131), replicate channel 130) was 0.949 and the 126/131 ([2]; Experiment II, oAbeta 1-42-biotin (TMT 126) versus biotin (TMT 131), replicate channel 126) was 1.157. The 128/131 ([2]; Experiment II, oAbeta 1-42-biotin (TMT 128) versus biotin (TMT 131), replicate channel 128) was 1.411 and the 130/131 ([2]; Experiment II, oAbeta 1-42-biotin (TMT 130) versus biotin (TMT 131), replicate channel 130) was 1.195.

— paper PMC5505701, “Somatostatin binds to the human amyloid β peptide and favors the formation of distinct oligomers” (eLife, 2017)
